Assay results taken from patent US20190064149.

Tests used:
[1] = molecular target: E-cadherin (UniProt P12830)
[2] = tested on: EphA2 (full-length type EphA2)
[3] = tested on: EphA2 having Myc-labeled C-terminal
[4] = tested on: processing-resistant EphA2 mutant (EphA2 deleted at a site to be processed by MT1-MMP, FLAG-labeled C terminal)

Sequence of E-cadherin (P12830 155-882): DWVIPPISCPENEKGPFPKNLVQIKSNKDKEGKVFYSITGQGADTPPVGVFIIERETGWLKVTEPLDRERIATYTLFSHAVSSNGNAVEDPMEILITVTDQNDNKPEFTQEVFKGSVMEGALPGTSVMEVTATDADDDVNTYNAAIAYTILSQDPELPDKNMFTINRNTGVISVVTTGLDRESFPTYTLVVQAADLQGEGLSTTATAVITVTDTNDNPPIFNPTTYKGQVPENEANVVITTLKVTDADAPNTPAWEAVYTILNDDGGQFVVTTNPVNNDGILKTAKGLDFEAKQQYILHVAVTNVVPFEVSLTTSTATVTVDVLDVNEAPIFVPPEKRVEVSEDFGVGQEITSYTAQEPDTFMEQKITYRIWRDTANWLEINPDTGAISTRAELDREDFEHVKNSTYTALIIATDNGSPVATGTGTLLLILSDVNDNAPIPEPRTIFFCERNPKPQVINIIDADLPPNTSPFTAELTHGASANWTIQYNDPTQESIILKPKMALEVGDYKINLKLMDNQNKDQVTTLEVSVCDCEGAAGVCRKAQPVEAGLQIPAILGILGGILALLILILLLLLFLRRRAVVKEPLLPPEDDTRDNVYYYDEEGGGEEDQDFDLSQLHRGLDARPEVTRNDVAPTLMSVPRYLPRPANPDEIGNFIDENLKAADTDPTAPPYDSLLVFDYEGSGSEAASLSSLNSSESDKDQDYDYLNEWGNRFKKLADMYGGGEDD

Substance: membrane type-1 matrix metallproteinase (MT1-MMP), expressed in cells
- processing of E-cadherin, western blotting [1]: presence or absence of MT1-MMP expression caused no change in the processing of E-cadherin
- 65-kDa and 60-kDa processed fragments of EphA2 after MT1-MMP knockdown, IP-western [2]: Due to MT1-MMP knockdown, the 65-kDa and 60-kDa processed fragments of EphA2 disappeared
- EphA2 processed fragments, western blotting with Myc antibody [3]: full-length type EphA2 (large arrow) and respective EphA2 processed fragments (small arrow) having a molecular weight of 65 and 60 kDa were detected
- processed state of EphA2, western blotting [4]: the mutant deleted at a cleavage site showed resistance against processing by MT1-MMP

Substance: MT2-MMP
- EphA2 processed fragment, western blotting [3]: a processed fragment of EphA2 (small arrow) was detected only in the MT1-MMP-introduced cells

Substance: MT3-MMP
- EphA2 processed fragment, western blotting [3]: a processed fragment of EphA2 (small arrow) was detected only in the MT1-MMP-introduced cells

Substance: MT5-MMP
- EphA2 processed fragment, western blotting [3]: a processed fragment of EphA2 (small arrow) was detected only in the MT1-MMP-introduced cells
